# Laboratory results published in patent US20130064790A1 (PROYECTO DE BIOMEDICINA CIMA S L, published 2013).
# Target: T1, human IL-10 (hIL-10) (human, UniProt P22301 19-178)
# T1 construct: also called human recombinant protein IL-10 (R & D Systems, cat No. 217-IL/CF); hIL-10 (e-Bioscience)
# Assay: SPR (BIAcore X), human IL-10 immobilized on CM5 chip, peptide 10 µM injected
# Procedure: To perform this assay, the Biosensor BIAcore X (BIAcore, AB, Uppsala, Sweden) was used. Briefly, human recombinant protein IL-10 (R & D Systems, cat No. 217-IL/CF) was covalently immobilized on the surface of flow cell 2 (FC2) of a CM5 chip (BIAcore), as described in De Crescenzo et al. 2001 (JBC, Vol 276; 29632-29643). Flow cell 1 (FC1), on the surface of which IL-10 is not immobilized, was used as a reference flow cell. The peptide solutions (10 μM) were injected at least twice in 10 mM Hepes buffer, pH 7.4, 150 mM NaCl, 0.005% Tween 20 (Polyoxyethylene Sorbitan Monolaurate) at a flow of 30 μl/min. The binding curves were processed by means of subtracting the response in FC1 from that obtained in FC2. The response in equilibrium was compared between the test peptide and an irrelevant control peptide of the same length. The control peptide used was peptide P301 (SEQ ID NO: 54) (derived from the HIV-1 coat, gp120 (301-315): […]). Each response was multiplied by a mass correction factor: MW(PX)/MW(P), where MW(PX) is the molecular weight of the test peptide P and MW(P) is the molecular weight of the control peptide (P301).
# T1 sequence (P22301 19-178 limits assumed): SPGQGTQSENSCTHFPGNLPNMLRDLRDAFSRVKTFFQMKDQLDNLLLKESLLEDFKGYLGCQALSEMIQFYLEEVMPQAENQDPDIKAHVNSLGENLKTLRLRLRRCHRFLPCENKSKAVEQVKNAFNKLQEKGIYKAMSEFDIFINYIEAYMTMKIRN
row,Binder,binding result
1,HRCFHFRRHPVA (Amino acids 2-13 of P9) [peptide P9 (2-13) (SEQ ID NO: 49)],binds
2,CHRCFHFRRHPVAAF (P9 with Val 14 replaced by Ala) [peptide P9 (14 Ala) (SEQ ID NO: 52)],binds
3,CHRCFHFRRHPVAVA (P9 with Phe 15 replaced by Ala) [peptide P9 (15 Ala) (SEQ ID NO: 51)],binds
4,HRCFHFRRHPVAVF (Amino acids 2-15 of P9) [peptide P9 (2-15) (SEQ ID NO: 45)],binds
5,RCFHFRRHPVAV (Amino acids 3-14 of P9) [peptide P9 (3-14) (SEQ ID NO: 50)],binds
6,CHRCFHFRRHPVA (Amino acids 1-13 of P9) [peptide P9 (1-13) (SEQ ID NO: 47)],binds

# Continued, values first:
row,binding result,Binder
1,binds,CHRCFHFRRHPVAV (Amino acids 1-14 of P9) [peptide P9 (1-14) (SEQ ID NO: 46)]
2,binds,HRCFHFRRHPVAV (Amino acids 2-14 of P9) [peptide P9 (2-14) (SEQ ID NO: 48)]
3,binds,SHRCFHFRRHPVA (Amino acids 1-13 of P9 with Cys 1 replaced by Ser) [peptide P9 (1-13; 1 Ser) (SEQ ID NO: 53)]

# Target: biotinylated IL-10 (Homo sapiens (Human)) (UniProt P22301)
# Sequence (P22301 19-178 limits assumed, form in doubt): as the sequence (P22301 19-178 limits assumed) above
# Assay: phage display biopanning, 3 rounds on biotinylated IL-10 on streptavidin plates; clones sequenced
row,No. of colonies,Binder
1,25 colonies,RKLRPHWLHFHPVAV [peptide P1 (SEQ ID NO: 1)]
2,29 colonies,ARWMHRHHGWSDRHR [peptide P2 (SEQ ID NO: 2)]
